The target of this assay is T1, human CD64 (human, UniProt P12314 16-374).
T1 construct: also called hCD64; FcγRIA
Description: flow cytometry on CHO-S-hCD64 and THP-1 cells. On the technique in general: A flow cytometer gives signals particle by particle.

The record followed here is patent WO2017179718A1 (dated 2017).

T1 sequence (P12314 16-374 limits assumed): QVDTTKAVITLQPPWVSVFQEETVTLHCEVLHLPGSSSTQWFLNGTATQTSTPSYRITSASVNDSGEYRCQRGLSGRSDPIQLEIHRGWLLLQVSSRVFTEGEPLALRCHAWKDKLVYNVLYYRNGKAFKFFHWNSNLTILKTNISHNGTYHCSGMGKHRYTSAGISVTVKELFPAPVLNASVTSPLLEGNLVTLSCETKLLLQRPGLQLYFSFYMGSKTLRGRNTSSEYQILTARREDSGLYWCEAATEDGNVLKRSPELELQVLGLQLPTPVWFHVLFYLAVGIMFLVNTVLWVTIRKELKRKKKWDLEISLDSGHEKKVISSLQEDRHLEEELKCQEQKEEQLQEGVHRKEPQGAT

B1: m22-AF647 antibody (antibody, human IgG4, V domains shown)
VH: QVQLVESGGGVVQPGRSLRLSCSSSGFIFSDNYMYWVRQAPGKGLEWVATISDGGSYTYYPDSVKGRFTISRDNSKNTLFLQMDSLRPEDTGVYFCARGYYRYEGAMDYWGQGTPVTVSS
VL: DIQLTQSPSSLSASVGDRVTITCKSSQSVLYSSNQKNYLAWYQQKPGKAPKLLIYWASTRESGVPSRFSGSGSGTDFTFTISSLQPEDIATYYCHQYLSSWTFGQGTKLEIK
modifications: Alexa Fluor 647 label on the antibody (sites not given)
notes: kappa) fluorescently labelled with Alexa Fluor 647
Regarding B1, the binding result was “binds”.
